According to paper doi:10.1101/2019.12.18.881029 (bioRxiv, 2019):
Positions count from the first letter of the chain named.

B1: 101 (antibody, V domains shown)
VH: QSVKESEGGLFKPTDTLTLTCTVSGFSLSRYGVSWVRQAPGSGLQWIGAIGETGRAYYANWAKSRSTITRNTNVNTVTLKMTSLTAADTATYFCARGEEFNNGWGAFNIWGPGTLVTVSS
VL: AYDMTQTPASVSEPVGGTVTIKCQASENIYTSLAWYQQKPGQPPKLLIYSASTLASGVPSRFKGSGSGTEFTLTISDLECADAASYYCQQGFATSNVENPFGGGTEVVVK
B2: 877 (antibody, V domains shown)
VH: B1 VH with S34T, S42N, A49T, A56S, N60S, I68V, V74E, E99L
VL: B1 VL with T31S, P59S, D77G, L78V, E79Q, A81E, S85T, A93G, S95N
B3: 810 (antibody, V domains shown)
VH: B1 VH with T14A, S42N, Q45E, A49T, T53A, K63R, N71T, V74L, K80T, E99V
VL: B1 VL with N28S, T31S, S32G, S50Q, P59S, E70D, T74A, S85T, A93G, T105S

Target: recombinant human TNFa (Shanghai Primegene Bi-Tech) (Homo sapiens, UniProt P01375)
Sequence (P01375 whole entry): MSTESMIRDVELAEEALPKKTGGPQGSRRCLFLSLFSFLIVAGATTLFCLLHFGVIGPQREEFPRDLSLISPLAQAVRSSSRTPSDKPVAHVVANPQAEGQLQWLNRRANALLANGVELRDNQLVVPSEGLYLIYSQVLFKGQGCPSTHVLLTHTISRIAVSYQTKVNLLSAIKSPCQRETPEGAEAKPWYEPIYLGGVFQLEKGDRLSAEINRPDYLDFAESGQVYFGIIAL

Binding result, binds:
B1
B2
B3
